Laboratory results from US11529390B2, “PCSK9 inhibitory polypolypeptides and methods of use” (INSTITUT DE CARDIOLOGIE DE MONTREAL, priority 2015, dated 2022).
Where two headings read alike, the source gives them in different places. Ends that are not written are not given here. Peptide text beside a SMILES is read from it. * marks the point of attachment. Cbz = O=C(OCc1ccccc1)*

Key:
[1] = biological target: PCSK9 binding to the LDLR EGFA domain (Homo sapiens, UniProt Q8NBP7); test: In vitro PCSK9-LDLR(EGFA) competitive assay, plate coated with LDLR-EGFA domain; settings: 100 or 10 μM peptide, 100 ng wild-type human His-tagged PCSK9, pH6.1, 2 h
PCSK9 binding to the LDLR EGFA domain, sequence (Q8NBP7 153-692): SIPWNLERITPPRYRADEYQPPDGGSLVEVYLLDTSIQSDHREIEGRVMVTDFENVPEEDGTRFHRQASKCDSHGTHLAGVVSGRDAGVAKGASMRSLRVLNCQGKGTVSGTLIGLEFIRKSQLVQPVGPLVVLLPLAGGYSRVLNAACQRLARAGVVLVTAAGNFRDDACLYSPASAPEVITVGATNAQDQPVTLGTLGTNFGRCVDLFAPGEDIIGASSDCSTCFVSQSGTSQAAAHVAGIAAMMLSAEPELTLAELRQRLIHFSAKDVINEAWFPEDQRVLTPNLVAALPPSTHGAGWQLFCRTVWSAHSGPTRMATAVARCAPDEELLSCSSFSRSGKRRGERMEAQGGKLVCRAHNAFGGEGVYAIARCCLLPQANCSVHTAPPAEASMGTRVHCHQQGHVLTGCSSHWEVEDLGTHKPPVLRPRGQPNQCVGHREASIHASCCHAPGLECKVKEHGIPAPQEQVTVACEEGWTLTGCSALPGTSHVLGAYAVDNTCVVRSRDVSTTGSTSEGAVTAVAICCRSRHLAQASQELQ
PCSK9 binding to the LDLR EGFA domain, sequence (Q8NBP7 31-152 partner limits assumed): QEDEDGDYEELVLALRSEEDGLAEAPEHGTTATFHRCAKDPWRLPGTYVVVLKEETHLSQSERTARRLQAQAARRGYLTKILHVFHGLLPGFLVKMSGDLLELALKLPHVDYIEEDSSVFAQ
Protocol: SEQ ID. NO. 4 peptide was dissolved to 10 mM (working dilution) in DMEM media (Wisent Cat. #319-005-CL). In a total of 100 μl reaction buffer (HEPES buffer containing NaCl, CaCl2), BSA and proclin 300, pH6.1), SEQ ID. NO. 4 were added to a final concentration of 100 or 10 μM together with 100 ng wild-type human recombinant His-tagged PCSK9. Reaction buffer was added to 96 wells coated with recombinant LDLR-EGFA domain (involved in PCSK9-LDLR interaction) and incubated at room temperature for 2 h on an orbital microplate shaker (300 rpm). Following incubation, wells were washed 4 times with wash buffer and biotinylated anti-His-tag monoclonal antibody was added into each well and incubated for 1 h at room temperature. Following incubation wells were washed 4 times, and HRP-conjugated streptatvidin was added to each well and incubated for 20 min. Following 4 washes, 100 μl substrate reagent (TMB, tetra-methylbenzidine) were added for 15 min to each wells and enzymatic reaction stopped by adding 100 μl stop solution (1N […]). For each well, absorbance at 450 nm and 540 nm was measure and relative PCSK9 binding to LDLR-EGFA was determined according to a standard curve (100 ng to 1.56 ng). Inhibitory activities of SEQ ID. […]

[2] = system: PCSK9-induce degradation of LDLR; test: PCSK9-induced LDLR-EGFP degradation in GRP94 knockdown HEK293 cells with proteasome inhibitor; format: cell-based, human; settings: 5 μM, HEK293, overnight
Protocol: FIG. 4: Knockdown of GRP94 increases LDLR degradation by PCSK9. At day 0, HEK293 cells were transfected either with a non-targeting siRNA (−) or with siRNAs against GRP94 (+). At day 1, cells were transfected with an empty vector (−) or with plasmids encoding for LDLR-EGFP (SEQ. ID. NO. 69) alone or in combination with PCSK9-mCherry (SEQ. ID. NO. 70). At day 2, cells were washed and incubated overnight with DMSO (−) or 5 μM MG132 overnight in complete media. (a) Total LDLR-EGFP, PCSK9-mCherry, GRP94 and β-actin protein levels were analyzed by immune-blotting in cell lysates as indicated. (b) LDLR-GFP and PCSK9-mCherry were visualized in live cells by confocal microscopy as conditions described above. Data are representative of at least three independent experiments.
To decipher the role of GRP94 on PCSK9, we took advantage of HEK293 cells, as they are easily transfectable in addition to be PCSK9-negative. (Seidah et al., 2003) Cells were transfected with either non-targeting siRNA (−) or with siRNAs against human GRP94 (+) and 24 h later without (−) or plasmids encoding for fluorescent PCSK9-mCherry or LDLR-EGFP (FIG. 4). Twenty-hours post cDNA transfections, cells were incubated either with vehicle (DMSO) or 5 μM MG132, a proteasome inhibitor.

PCSK9-V5 = biological target: T1, PCSK9-V5 (Homo sapiens, UniProt Q8NBP7); test: Co-immunoprecipitation of GRP94 constructs with PCSK9-V5 in transfected HEK293 cells; format: binding
T1 construct: Full-length human V5-tagged PCSK9 and LDLR were subcloned into pIRES2-EGFP; expressed in transfected cells; host or cells: HEK293
T1 sequence (Q8NBP7 153-692): as the sequence (Q8NBP7 153-692) above
Protocol: FIG. 2: Mapping of the PCSK9-GRP94 interacting domain. (a-b) HEK293 cells were transfected without (−) or with (+) PCSK9-V5 or SEQ ID NO. 66, 64 or 65. A PCSK9 V5 epitope-tag fusion protein (PCSK9-V5) was immune-precipitated from cell lysates using mAb-V5 antibody (IP: V5) and immune-blotted as indicated. Total GRP94 (SEQ. ID. NO. 3) and PCSK9 (SEQ. ID. NO. 1) protein levels were analyzed by immune-blotting in cell lysates (input) and conditioned media. (c) Left panel; HEK293 cells were transfected without (−) or with (+) PCSK9-V5, SEQ. ID. NO. 66 or 46. PCSK9-V5 was immune-precipitated for cell lysates (IP: V5) and immune-blotted (IB) as indicated. Total GRP94 and PCSK9 protein levels were also analyzed by immune-blotting and herein used as a control (input). Right panel; GRP94 homodimer (gray and yellow) crystal structure was determined from PDB file #2O1V using MacPymol software. […] 6 in which critical residues for PCSK9 binding determined in (b) are indicated in blue for SEQ. ID. NO. 64 and red for SEQ. ID. NO. 65. Data are representative of at least three independent experiments.
For identification of novel PCSK9 interactors, HepG2 or Huh-7 cells (55 cm2) were washed three times in phosphate-buffered saline (PBS) and incubated with 1 mM dithiobis[succinimidylpropionate] (DSP; Cat. #22585, Thermo Scientific), a thiol-cleavable cross-linking reagent, for 30 min at room temperature and subsequently switch for 15 min into a stop solution (15 mM Tris, pH 7.5). Cells were then lysed in complete radio-immune precipitation assay (RIPA) buffer (50 mM Tris/HCl, pH 8.0, 1% (v/v) Nonidet P40, 0.5% sodium deoxycholate, 150 mM NaCl and 0.1% (v/v) sodium dodecyl sulfate (SDS)) supplemented with a complete protease inhibitor mixture (Cat. #11 697 498 001, Roche Applied Science), passed 25 times through a 22-gauge needle and centrifuged at 11,000 g for 15 min at 4° C. Supernatants were incubated and rotated overnight with pre-immune serum, rabbit anti-hPCSK9 (amino acids 31-454) (1:250; Dr. Nabil Seidah, Clinical Research Institute of Montreal) or mouse anti-V5-tag (1:500; Cat. #R96025, Life Technologies) together with 50 μl protein A/G PLUS-agarose (Cat. #sc-2003, Santa Cruz). Following overnight incubation, beads were washed six times in RIPA buffer and resuspended in 75 μl Laemmli sample buffer. Co-immunoprecipitated (Co-IP) proteins were separated by 8% SDS-polyacrylamide gel electrophoresis and visualized using the Pierce silver stain kit (Cat. #24600, Thermo Scientific) according the manufacturer's instructions. All other Co-IP experiments were performed as described without the cross-linking step and in SDS-deprived RIPA buffer. HA-tagged proteins and GRP94 were immunoprecipitated with mouse anti-HA-tag (1:500; Cat. #H3663, Sigma-Aldrich) or rat anti-Grp94 (9G10, 1:1000; Cat. #ADI-SPA-850, Enzo Life Sciences).
We next decided to map GRP94 domain(s) important for PCSK9 protein-protein interaction. The overall domain structure of GRP94 includes a signal polypeptide (amino acids; aa1-21) followed by a N-terminal enzymatic ATP-binding domain (aa22-651), client-binding domain (CBD; aa652-678), C-terminal dimerization domain (aa679-799) and a KDEL polypeptide sequence (aa800-803) allowing retention of GRP94 in the endoplasmic reticulum. (Dollins et al., 2007; Maki et al., 1990; Wu et al., 2012) Thus, we first generated cDNA constructs encoding secretable HA-tagged forms of human GRP94 lacking its C-terminal KDEL polypeptide (SEQ ID. NO. 66; FIG. 2). HEK293 cells were transfected without or with SEQ ID. NO. 66 in absence or presence of PCSK9-V5 (FIG. 2a). […] NO. 66 is well expressed (Input; IB: HA) and secreted into media and that SEQ ID. NO. […] It was reported that a 27 aa C-terminal hydrophobic loop structure within GRP94 client-binding domain (CBD, amino acids aa652-678; ^652[…], SEQ ID. NO. 4) was important for folding and interaction with Toll-like receptors and integrins. (Wu et al., 2012) Deletion or alanine-scan mutations in SEQ ID. […]

[3] = system: LDLR degradation induced by overexpression of PCSK9; test: LDLR degradation after co-expression with PCSK9-V5 (intracellular pathway), immunoblot; format: cell-based, human
Protocol: FIG. 7: SEQ ID NO. 6 prevents PCSK9-induced LDLR degradation. (a) Left; Coomassie staining of purified recombinant SEQ ID NO. 6 and PCSK9 separated by SDS-PAGE is shown. Right; HepG2 cells were incubated in DMEM without or with 0, 25, 100 or 250 nM SEQ ID NO. 6 alone or in presence of recombinant PCSK9. (b) HepG2 cells were transfected without (−) or with PCSK9-V5 in absence (−) or presence SEQ ID NO. 66 or SEQ ID NO. 46. Total LDLR, PCSK9, SEQ ID NO. 66, SEQ ID NO. 46 and β-actin protein levels were analyzed by immunoblotting in cell lysates and conditioned media as indicated. Data are representative of at least three independent experiments.
We next tested whether SEQ ID. NO. 6 could alter the capacity of PCSK9 to induce LDLR degradation. HepG2 cells were incubated overnight with an increasing amount of recombinant SEQ ID. NO. 6 in absence or presence of exogenous PCSK9 (FIG. 7a). […] NO. […] Although that SEQ ID. NO. […] NO. […] (Poirier et al., 2009) As PCSK9 was also shown to induce LDLR degradation via an intracellular pathway, (Poirier et al., 2009) we evaluated to ability of SEQ ID. NO. 66 or SEQ ID. NO. 46 to neutralize PCSK9 in HepG2 cells following co-expression (FIG. 7b). Similar to the extracellular pathway (FIGS. 5b and 7a), both SEQ ID. NO. 66 and SEQ ID. NO. […] NO. 66 and specifically SEQ ID. NO. […]

YGWSGNMERIMKAQAYQTGKDISTNYY (YGWSGNMERIMKAQAYQTGKDISTNYY-NH2) [SEQ ID. NO. 4]
Inhibition of binding of PCSK9 to the LDLR EGFA domain [1]: inhibit binding of PCSK9 to the LDLR EGFA domain | Inhibition of binding of PCSK9 to the LDLR EGFA domain ([1]; listed as SEQ. ID. NO. 4): inhibits binding of PCSK9 to the LDLR EGFA domain

CC(C)C[C@@H](C=O)NC(=O)[C@H](CC(C)C)NC(=O)[C@H](CC(C)C)NC(=O)OCc1ccccc1 [MG132] (Cbz-Leu-Leu-Leu-aldehyde)
Block of PCSK9-induced LDLR degradation after GRP94 knockdown [2]: not blocked

B1: SEQ ID. NO. 66: secretable HA-tagged form of human GRP94 lacking its C-terminal KDEL sequence (protein)
chain: MRALWVLGLCCVLLTFGSVRADDEVDVDGTVEEDLGKSREGSRTDDEVVQREEEAIQLDGLNASQIRELREKSEKFAFQAEVNRMMKLIINSLYKNKEIFLRELISNASDALDKIRLISLTDENALSGNEELTVKIKCDKEKNLLHVTDTGVGMTREELVKNLGTIAKSGTSEFLNKMTEAQEDGQSTSELIGQFGVGFYSAFLVADKVIVTSKHNNDTQHIWESDSNEFSVIADPRGNTLGRGTTITLVLKEEASDYLELDTIKNLVKKYSQFINFPIYVWSSKTETVEEPMEEEEAAKEEKEESDDEAAVEEEEEEKKPKTKKVEKTVWDWELMNDIKPIWQRPSKEVEEDEYKAFYKSFSKESDDPMAYIHFTAEGEVTFKSILFVPTSAPRGLFDEYGSKKSDYIKLYVRRVFITDDFHDMMPKYLNFVKGVVDSDDLPLNVSRETLQQHKLLKVIRKKLVRKTLDMIKKIADDKYNDTFWKEFGTNIKLGVIEDHSNRTRLAKLLRFQSSHHPTDITSLDQYVERMKEKQDKIYFMAGSSRKEAESSPFVERLLKKGYEVIYLTEPVDEYCIQALPEFDGKRFQNVAKEGVKFDESEKTKESREAVEKEFEPLLNWMKDKALKDKIEKAVVSQRLTESPCALVASQYGWSGNMERIMKAQAYQTGKDISTNYYASQKKTFEINPRHPLIRDMLRRIKEDEDDKTVLDLAVVLFETATLRSGYLLPDTKAYGDRIERMLRLSLNIDPDAKVEEEPEEEPEETAEDTTEDTEQDEDEEMDVGTDEEEETAKESTAEYPYDVPDYA
Interaction (binding) with PCSK9 by co-immunoprecipitation (PCSK9-V5): interacts in complex with PCSK9 | Interaction (binding) with PCSK9 by co-immunoprecipitation (PCSK9-V5; listed as SEQ. ID NO. 66): specifically binds to PCSK9 | Block of LDLR degradation induced by overexpression of PCSK9 [3]: significantly block

B2: SEQ ID. NO. 46: secretable HA-tagged GRP94 signal polypeptide, client-binding domain and C-terminal domain lacking KDEL (CBD-CT) (protein)
chain: MRALWVLGLCCVLLTFGSVRAYGWSGNMERIMKAQAYQTGKDISTNYYASQKKTFEINPRHPLIRDMLRRIKEDEDDKTVLDLAVVLFETATLRSGYLLPDTKAYGDRIERMLRLSLNIDPDAKVEEEPEEEPEETAEDTTEDTEQDEDEEMDVGTDEEEETAKESTAEYPYDVPDYA
Block of LDLR degradation induced by overexpression of PCSK9 [3]: significantly block
